Experimental data: article PMC5374433, “Theranostic Value of Multimers: Lessons Learned from Trimerization of Neurotensin Receptor Ligands and Other Targeting Vectors” (Pharmaceuticals, 2017)
Read-outs that look alike come from different tables or passages of the source.

How the values were obtained:
[1] = type: in vivo; conditions: mouse blood sample taken 5 min after injection, HPLC
Procedure: The in vivo stability of [^68Ga]Ga-TRAP(NT4)3 was measured from a blood sample taken 5 min after injection in mice. […] Unfortunately, it was not possible to determine the stability at later time points due to the low amount of residual radioactivity in the blood.

human NTS1 = human NTS1 (Homo sapiens, UniProt P30989); assay: Competitive radioligand binding assay, NTS1; conditions: Ki (NTS1, nM), membranes of CHO cells stably expressing human NTS1; mean ± SEM, 4-8 experiments
Sequence of human NTS1 (P30989 whole entry): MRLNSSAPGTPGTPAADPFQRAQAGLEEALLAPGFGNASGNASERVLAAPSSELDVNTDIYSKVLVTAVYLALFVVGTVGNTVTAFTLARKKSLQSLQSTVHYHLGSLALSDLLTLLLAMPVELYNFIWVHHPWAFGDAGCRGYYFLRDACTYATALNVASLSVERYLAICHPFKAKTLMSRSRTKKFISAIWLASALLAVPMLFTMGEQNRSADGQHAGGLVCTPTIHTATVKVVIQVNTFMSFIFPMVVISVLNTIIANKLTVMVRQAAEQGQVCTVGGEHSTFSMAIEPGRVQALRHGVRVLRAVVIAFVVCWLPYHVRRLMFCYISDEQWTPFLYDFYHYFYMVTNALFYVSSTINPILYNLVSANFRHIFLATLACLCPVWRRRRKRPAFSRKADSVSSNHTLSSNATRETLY
Procedure: Receptor binding data were performed as described previously. […] NTS2 binding was conducted using homogenates of membranes from HEK 293 cells transiently transfected with pcDNA3.1 carrying the human NTS2 gene (Missouri S&T cDNA Resource Center (UMR), Rolla, MO, USA) using the Mirus TransIT-293 transfection reagent (MoBiTec, Göttingen, Germany) according to the manufacturer’s protocol.
Data analysis of the competition binding curves from the radioligand displacement experiments was done by non-linear regression analysis when applying the algorithms of the PRISM 6.0 software package (GraphPad Software, San Diego, CA, USA). EC50 values were derived from each dose-response curve and were subsequently transformed into the corresponding Ki values by applying the equation of Cheng and Prusoff. Mean Ki values and the corresponding S.E.M. values (standard error of the mean) were determined by analyzing four to eight individual experiments.

[2] = Biodistribution in HT29 tumor-bearing nude mice; type: in vivo, mouse; conditions: mouse; for tissue uptake at 1.5 h / tissue uptake at 1 h: in vivo
Procedure: (§1) For in vivo evaluation of [^68Ga]Ga-TRAP(NT4)3 the NTS1-positive human colorectal adenocarcinoma cells HT29 were injected in nude mice to generate a subcutaneous tumor. The radioligand was injected in the tail vein of the mice and the biodistribution was determined 60 and 90 min after tracer injection. […] The clearance rate of [^68Ga]Ga-TRAP(NT4)3 in these excretion organs was apparently low. […] (1.44 %ID/g). Blocking experiments were performed to confirm the specificity of the tumor uptake of [^68Ga]Ga-TRAP(NT4)3 in vivo. Therefore, TRAP(NT4)3 (20 nmol) or NT4 (100 nmol) were co-injected together with the radiotracer to define the nonspecific uptake of the tracer in the tumor region. […] Apart from the intestine, the uptake in all other organs was not affected by the blocking substances (Table 2), confirming the receptor-mediated uptake of [^68Ga]Ga-TRAP(NT4)3, as it was reported that NTS receptors are expressed in the small intestine of mice.
(§2) All animal experiments were performed in compliance with the protocols approved by the local Animal Protection Authorities (Regierung Mittelfranken, Germany, no. 54-2532.1-15/08). Female athymic NMRI nude mice (nu/nu) were obtained from Harlan Winkelmann GmbH (Borchen, Germany) at four weeks of age and were kept under standard conditions (12 h light/dark) with food and water available ad libitum for at least five weeks. HT29 tumors were generated as described before.
(§3) HT29 xenografted nude mice were injected with [^68Ga]Ga-TRAP(NT4)3 into a tail vein (2.5–7.5 MBq/mouse). The animals were killed by cervical dislocation 60 or 90 min p.i. The tumors, other tissues (lung, liver, kidneys, heart, spleen, brain, muscle, femur, and intestine) and blood were removed and weighed. Radioactivity of the samples was measured using a γ-counter and expressed as the percentage of injected dose per gram of tissue (%ID/g), from which tumor-to-blood ratios were calculated. Blocking experiments were carried out by co-injecting randomly chosen mice with TRAP(NT4)3 (20 nmol/mouse) or NT4 (100 nmol/mouse) together with the radiotracer. These mice were killed by cervical dislocation at 60 min p.i., and organs and tissue were removed, weighed, and counted as described above.

[3] = tested on: HT29 xenografted nude mice; assay: Biodistribution in HT29 tumor-bearing nude mice; type: in vivo, mouse
Procedure: as §1, §2, §3

[4] = Small animal PET imaging of HT29 tumor-bearing mice; conditions: mouse, in vivo, molar radioactivities of more than 20 MBq/nmol, read-out: highest tumor uptake values by PET
Procedure: The highest tumor uptake values of approximately 2 %ID/g were determined with molar radioactivities of more than 20 MBq/nmol. […] Considering all eight mice, which were repeatedly measured by PET with varying molar radioactivities of [^68Ga]Ga-TRAP(NT4)3, a good correlation of molar radioactivity and tumor uptake could be observed (Figure 4b; r = 0.713, Spearman correlation, p < 0.0004).
PET scans and image analysis were performed using a small-animal PET scanner (Inveon, Siemens Medical Solutions, Erlangen, Germany). About 1.5–4 MBq of [^68Ga]Ga-TRAP(NT4)3 with varying amounts of 0.02–10 nmol TRAP(NT4)3 were intravenously injected into the mice under isoflurane anesthesia (4%). Animals were subjected to a 60 min dynamic scan starting with tracer injection. After iterative maximum a posteriori image reconstruction of the decay- and attenuation-corrected images, regions of interest (ROIs) were drawn over the tumor. The radioactivity concentration within the tumor region was obtained from the mean value within the multiple ROIs and then converted to SUV relative to the injected dose and the individual body weight.

## CC(C)C[C@H](NC(=O)[C@@H](NC(=O)[C@H](Cc1ccc(O)cc1)NC(=O)[C@@H]1CCCN1C(=O)[C@H](CCCCN)NC(=O)CN(CCCCN)C(=O)[C@@H](N)CCCCn1cc(CNC(=O)CCP(=O)(O)CN2CCN(CP(=O)(O)CCC(=O)NCc3cn(CCCC[C@H](N)C(=O)N(CCCCN)CC(=O)N[C@@H](CCCCN)C(=O)N4CCC[C@H]4C(=O)N[C@@H](Cc4ccc(O)cc4)C(=O)N[C@H](C(=O)N[C@@H](CC(C)C)C(=O)O)C(C)(C)C)nn3)CCN(CP(=O)(O)CCC(=O)NCc3cn(CCCC[C@H](N)C(=O)N(CCCCN)CC(=O)N[C@@H](CCCCN)C(=O)N4CCC[C@H]4C(=O)N[C@@H](Cc4ccc(O)cc4)C(=O)N[C@H](C(=O)N[C@@H](CC(C)C)C(=O)O)C(C)(C)C)nn3)CC2)nn1)C(C)(C)C)C(=O)O (single isomer, unassigned) [[^68Ga]Ga-TRAP(NT4)3, metal not drawn]
[1]
  formation of a more hydrophilic radiometabolite: 8%
Human NTS1
  Ki: 0.1 nM
[2]; female, athymic NMRI nude (nu/nu), HT29 tumor / blood, iv, total radioactivity, 60 min p.i.
  tissue to tissue ratio at 1 h: 13
[2]; female, athymic NMRI nude (nu/nu), HT29 tumor / blood, iv, total radioactivity, 90 min p.i.
  tissue to tissue ratio at 1.5 h: 36
[2]; female, athymic NMRI nude (nu/nu), HT29 tumor, iv, total radioactivity, 60 min p.i., equals 1.7 %ID/g
  SUV at 1 h: ~0.7 SUV
[2]; 60 and 90 min p.i., read-out: uptake in the liver
  tissue uptake at 1.5 h: 11 to 12 %ID/g
[2]; 60 and 90 min p.i., read-out: uptake values in the kidneys
  tissue uptake at 1.5 h: 55 to 102 %ID/g
[2]; 60 min p.i., blocking: co-injection of NT4 (100 nmol per mouse), read-out: HT29 tumor uptake
  tissue uptake at 1 h: 0.6 ± 0.13 %ID/g
[2]; 60 min p.i., blocking: co-injection of NT4 (100 nmol per mouse), read-out: blood uptake
  tissue uptake at 1 h: 0.4 ± 0.01 %ID/g
[2]; 60 min p.i., blocking: co-injection of NT4 (100 nmol per mouse), read-out: brain uptake
  tissue uptake at 1 h: 0.07 ± 0.02 %ID/g
[2]; 60 min p.i., blocking: co-injection of NT4 (100 nmol per mouse), read-out: femur uptake
  tissue uptake at 1 h: 1.72 ± 0.12 %ID/g
[2]; 60 min p.i., blocking: co-injection of NT4 (100 nmol per mouse), read-out: heart uptake
  tissue uptake at 1 h: 0.45 ± 0.13 %ID/g
[2]; 60 min p.i., blocking: co-injection of NT4 (100 nmol per mouse), read-out: intestine uptake
  tissue uptake at 1 h: 0.49 ± 0.07 %ID/g
[2]; 60 min p.i., blocking: co-injection of NT4 (100 nmol per mouse), read-out: kidney uptake
  tissue uptake at 1 h: 99.9 ± 15.5 %ID/g
[2]; 60 min p.i., blocking: co-injection of NT4 (100 nmol per mouse), read-out: liver uptake
  tissue uptake at 1 h: 11.2 ± 2.27 %ID/g
[2]; 60 min p.i., blocking: co-injection of NT4 (100 nmol per mouse), read-out: lung uptake
  tissue uptake at 1 h: 6.06 ± 1.19 %ID/g
[2]; 60 min p.i., blocking: co-injection of NT4 (100 nmol per mouse), read-out: muscle uptake
  tissue uptake at 1 h: 0.16 ± 0.03 %ID/g
[2]; 60 min p.i., blocking: co-injection of NT4 (100 nmol per mouse), read-out: spleen uptake
  tissue uptake at 1 h: 3.75 ± 0.81 %ID/g
[2]; 60 min p.i., blocking: co-injection of TRAP(NT4)3 (20 nmol per mouse), read-out: HT29 tumor uptake
  tissue uptake at 1 h: 1.1 ± 0.2 %ID/g
[2]; 60 min p.i., blocking: co-injection of TRAP(NT4)3 (20 nmol per mouse), read-out: blood uptake
  tissue uptake at 1 h: 0.07 ± 0.01 %ID/g
[2]; 60 min p.i., blocking: co-injection of TRAP(NT4)3 (20 nmol per mouse), read-out: brain uptake
  tissue uptake at 1 h: 0.06 ± 0.07 %ID/g
[2]; 60 min p.i., blocking: co-injection of TRAP(NT4)3 (20 nmol per mouse), read-out: femur uptake
  tissue uptake at 1 h: 0.74 ± 0.14 %ID/g
[2]; 60 min p.i., blocking: co-injection of TRAP(NT4)3 (20 nmol per mouse), read-out: heart uptake
  tissue uptake at 1 h: 0.15 ± 0.11 %ID/g
[2]; 60 min p.i., blocking: co-injection of TRAP(NT4)3 (20 nmol per mouse), read-out: intestine uptake
  tissue uptake at 1 h: 0.49 ± 0.08 %ID/g
[2]; 60 min p.i., blocking: co-injection of TRAP(NT4)3 (20 nmol per mouse), read-out: kidney uptake
  tissue uptake at 1 h: 96.3 ± 8.83 %ID/g
[2]; 60 min p.i., blocking: co-injection of TRAP(NT4)3 (20 nmol per mouse), read-out: liver uptake
  tissue uptake at 1 h: 8.3 ± 0.87 %ID/g
[2]; 60 min p.i., blocking: co-injection of TRAP(NT4)3 (20 nmol per mouse), read-out: lung uptake
  tissue uptake at 1 h: 1.61 ± 0.42 %ID/g
[2]; 60 min p.i., blocking: co-injection of TRAP(NT4)3 (20 nmol per mouse), read-out: muscle uptake
  tissue uptake at 1 h: 0.1 ± 0.05 %ID/g
[2]; 60 min p.i., blocking: co-injection of TRAP(NT4)3 (20 nmol per mouse), read-out: spleen uptake
  tissue uptake at 1 h: 2.2 ± 0.39 %ID/g
[2]; 60 min p.i., read-out: HT29 tumor uptake
  tissue uptake at 1 h: 1.7 %ID/g
[2]; 60 min p.i., read-out: blood uptake
  tissue uptake at 1 h: 0.13 ± 0.02 %ID/g
[2]; 60 min p.i., read-out: brain uptake
  tissue uptake at 1 h: 0.04 ± 0.01 %ID/g
[2]; 60 min p.i., read-out: femur uptake
  tissue uptake at 1 h: 1.51 ± 0.12 %ID/g
[2]; 60 min p.i., read-out: heart uptake
  tissue uptake at 1 h: 0.13 ± 0.02 %ID/g
[2]; 60 min p.i., read-out: intestine uptake
  tissue uptake at 1 h: 1.5 ± 0.42 %ID/g
[2]; 60 min p.i., read-out: kidney uptake
  tissue uptake at 1 h: 94.5 ± 10.8 %ID/g
[2]; 60 min p.i., read-out: liver uptake
  tissue uptake at 1 h: 11.2 ± 0.3 %ID/g
[2]; 60 min p.i., read-out: lung uptake
  tissue uptake at 1 h: 2.76 ± 0.53 %ID/g
[2]; 60 min p.i., read-out: muscle uptake
  tissue uptake at 1 h: 0.09 ± 0.03 %ID/g
[2]; 60 min p.i., read-out: spleen uptake
  tissue uptake at 1 h: 3.72 ± 0.09 %ID/g
[2]; 90 min p.i., read-out: HT29 tumor uptake
  tissue uptake at 1.5 h: 1.44 ± 0.13 %ID/g
[2]; 90 min p.i., read-out: blood uptake
  tissue uptake at 1.5 h: 0.04 ± 0.02 %ID/g
[2]; 90 min p.i., read-out: brain uptake
  tissue uptake at 1.5 h: 0.02 ± 0.01 %ID/g
[2]; 90 min p.i., read-out: femur uptake
  tissue uptake at 1.5 h: 1.17 ± 0.21 %ID/g
[2]; 90 min p.i., read-out: heart uptake
  tissue uptake at 1.5 h: 0.35 ± 0.37 %ID/g
[2]; 90 min p.i., read-out: intestine uptake
  tissue uptake at 1.5 h: 1.31 ± 0.2 %ID/g
[2]; 90 min p.i., read-out: kidney uptake
  tissue uptake at 1.5 h: 102 ± 29.9 %ID/g
[2]; 90 min p.i., read-out: liver uptake
  tissue uptake at 1.5 h: 11.7 ± 0.48 %ID/g
[2]; 90 min p.i., read-out: lung uptake
  tissue uptake at 1.5 h: 2.37 ± 0.21 %ID/g
[2]; 90 min p.i., read-out: muscle uptake
  tissue uptake at 1.5 h: 0.11 ± 0.08 %ID/g
[2]; 90 min p.i., read-out: spleen uptake
  tissue uptake at 1.5 h: 3.45 ± 0.38 %ID/g
[3]; 60 min p.i.
  HT29 tumor uptake: 1.74 ± 0.21 %ID/g
[3]; HT29 tumor
  tumor uptake compared to monomeric analogs: two-fold
[4]
  tissue uptake: ~2 %ID/g
